Here are results for five molecules from PMC5960609 (Biochemical pharmacology, 2018).

B1: TH553, thioredoxin fusion of human AHR aa1-295 (CΔ553) (domain or fragment, UniProt P35869 1-295, looked up)
chain: MNSSSANITYASRKRRKPVQKTVKPIPAEGIKSNPSKRHRDRLNTELDRLASLLPFPQDVINKLDKLSVLRLSVSYLRAKSFFDVALKSSPTERNGGQDNCRAANFREGLNLQEGEFLLQALNGFVLVVTTDALVFYASSTIQDYLGFQQSDVIHQSVYELIHTEDRAEFQRQLHWALNPSQCTESGQGIEEATGLPQTVVCYNPDQIPPENSPLMERCFICRLRCLLDNSSGFLAMNFQGKLKYLHGQKKKGKDGSILPPQLALFAIATPLQPPSILEIRTKNFIFRTKHKLDF

One assay has as its target GST-p23 W106A (human) (UniProt Q15185). The assay can be described thus: pull-down.
A further assay deals with GST-p23 D108A (human) (UniProt Q15185). The assay can be described thus: pull-down.
Another assay addresses GST-p23 D112A (human) (UniProt Q15185). The assay can be described thus: pull-down.
The target of assay [1] is Full-length human ARNT expressed in Pichia (human, UniProt P27540 1-789). The assay can be described thus: native gel or EMSA. A general note: Mobility shift assays separate free from complexed probe on a gel.
For assay [2], the target named is B1. The assay can be described thus: pull-down.

Full-length human ARNT expressed in Pichia, sequence (P27540 whole entry): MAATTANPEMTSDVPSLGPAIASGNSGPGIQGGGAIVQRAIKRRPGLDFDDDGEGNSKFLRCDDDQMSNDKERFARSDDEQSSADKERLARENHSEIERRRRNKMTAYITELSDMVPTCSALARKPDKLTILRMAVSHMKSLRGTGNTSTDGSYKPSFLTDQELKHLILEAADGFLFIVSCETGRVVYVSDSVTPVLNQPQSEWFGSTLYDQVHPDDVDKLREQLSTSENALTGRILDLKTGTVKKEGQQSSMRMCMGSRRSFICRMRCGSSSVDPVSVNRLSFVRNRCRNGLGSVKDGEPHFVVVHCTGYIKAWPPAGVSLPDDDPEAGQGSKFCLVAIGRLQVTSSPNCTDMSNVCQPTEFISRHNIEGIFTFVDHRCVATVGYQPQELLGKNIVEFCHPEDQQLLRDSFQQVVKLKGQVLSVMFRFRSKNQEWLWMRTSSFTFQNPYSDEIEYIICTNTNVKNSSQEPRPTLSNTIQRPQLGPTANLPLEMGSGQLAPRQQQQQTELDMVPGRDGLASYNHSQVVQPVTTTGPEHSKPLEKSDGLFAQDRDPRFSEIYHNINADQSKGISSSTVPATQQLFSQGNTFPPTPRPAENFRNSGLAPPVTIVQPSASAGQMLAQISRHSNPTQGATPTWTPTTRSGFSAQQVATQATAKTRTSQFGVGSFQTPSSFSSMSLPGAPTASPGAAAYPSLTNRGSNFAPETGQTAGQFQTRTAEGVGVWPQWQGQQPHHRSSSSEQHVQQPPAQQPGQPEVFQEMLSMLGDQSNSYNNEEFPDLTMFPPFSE

In the case of “Histidine fusion of full-length human Hsp90 (from UniProt P07900 1-732) (natural protein)”, the Hsp90 co-precipitated, percent of wild-type p23 with GST-p23 W106A (human) amounted to 19%; with GST-p23 D108A (human), 12%; with GST-p23 D112A (human), 41%.

Regarding B1, the binding result in assay [1] is “binds”.

B2: GST-p23 CΔ50 (p23 aa1-110, lacking the terminal 50 amino acids) (domain or fragment, human, UniProt Q15185 1-110, looked up)
chain: MQPASAKWYDRRDYVFIEFCVEDSKDVNVNFEKSKLTFSCLGGSDNFKHLNEIDLFHCIDPNDSKHKRTDRSILCCLRKGESGQSWPRLTKERAKLNWLSVDFNNWKDWE
For the molecule B2, the binding result in assay [2] is listed as “binds”.

B3: GST-p23 D108A (natural protein, human, UniProt Q15185 1-160, looked up)
chain: MQPASAKWYDRRDYVFIEFCVEDSKDVNVNFEKSKLTFSCLGGSDNFKHLNEIDLFHCIDPNDSKHKRTDRSILCCLRKGESGQSWPRLTKERAKLNWLSVDFNNWKAWEDDSDEDMSNFDRFSEMMNNMGGDEDVDLPEVDGADDDSQDSDDEKMPDLE
In the case of B3, in assay [2], the binding result is given as “binds”.

B4: GST-p23 D112A (natural protein, human, UniProt Q15185 1-160, looked up)
chain: MQPASAKWYDRRDYVFIEFCVEDSKDVNVNFEKSKLTFSCLGGSDNFKHLNEIDLFHCIDPNDSKHKRTDRSILCCLRKGESGQSWPRLTKERAKLNWLSVDFNNWKDWEDASDEDMSNFDRFSEMMNNMGGDEDVDLPEVDGADDDSQDSDDEKMPDLE
As to B4, the binding result in assay [2] is on record as “binds”.
